Numbered stars: 1 amine (or outer) side, 2 acyl side, 3 side chain; on linkers, the order of the positions; unused ones are H or OH. Square brackets hold non-standard residues; d marks the D form. Side chains are listed from the residue outwards. Ends that are not written are not given here. * marks the point of attachment. C20 diacid = O=C(O)CCCCCCCCCCCCCCCCCCC(=O)*; C18 diacid = O=C(O)CCCCCCCCCCCCCCCCC(=O)*; αMePhe(2-F) = C[C@](N)(Cc1ccccc1F)C(=O)O; γGlu = O=C(O)[C@H](CCC(=O)[*:2])N[*:1]; αMeL = CC(C)C[C@](C)(N)C(=O)O; AEEA = NCCOCCOCC(=O)O; Aib = CC(C)(N)C(=O)O
Molecular target: T1, human gastric inhibitory peptide receptor (hGIPR) (Homo sapiens, UniProt P48546)
T1 construct: expressed in transfected cells; host or cells: HEK293
T1 sequence (P48546 22-466): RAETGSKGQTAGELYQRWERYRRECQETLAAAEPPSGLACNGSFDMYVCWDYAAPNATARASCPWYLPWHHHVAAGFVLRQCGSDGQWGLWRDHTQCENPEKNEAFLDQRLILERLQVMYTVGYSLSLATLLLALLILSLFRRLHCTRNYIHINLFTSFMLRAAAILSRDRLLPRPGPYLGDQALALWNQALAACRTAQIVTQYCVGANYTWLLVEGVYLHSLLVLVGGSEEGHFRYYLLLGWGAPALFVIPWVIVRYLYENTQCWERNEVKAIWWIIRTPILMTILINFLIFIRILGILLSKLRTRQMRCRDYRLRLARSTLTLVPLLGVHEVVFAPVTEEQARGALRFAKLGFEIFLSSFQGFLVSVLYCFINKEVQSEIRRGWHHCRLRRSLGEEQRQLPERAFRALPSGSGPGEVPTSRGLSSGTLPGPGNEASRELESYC
Test: cAMP pharmacological functional assay in presence of 0.1% casein, hGIPR
Format: cell-based
Details: ratio of hGIPR to hGLP1R cAMP EC50 ratios

Row | Substance | [hGIPR/hGLP1R] EC50 Ratio
1 | Y-Aib-EGT-αMeF(2F)-TSDHSI-αMeL-LDEK((2-[2-(2-Amino-ethoxy)-ethoxy]-acetyl)2-(γGlu)-CO—(CH2)16—CO2H)AQ-Aib-HFI-(D-Glu)-YLIEGGPSSG-NH2 (Y[Aib]EGT[αMePhe(2-F)]TSDHSI[αMeL]LDEK([AEEA-AEEA-γGlu-C18 diacid])AQ[Aib]HFI[dE]YLIEGGPSSG-NH2; N-terminus assumed; SMILES CC[C@H](C)[C@H](NC(=O)[C@H](CC(C)C)NC(=O)[C@H](Cc1ccc(O)cc1)NC(=O)[C@@H](CCC(=O)O)NC(=O)[C@@H](NC(=O)[C@H](Cc1ccccc1)NC(=O)[C@H](Cc1c[nH]cn1)NC(=O)C(C)(C)NC(=O)[C@H](CCC(N)=O)NC(=O)[C@H](C)NC(=O)[C@H](CCCCNC(=O)COCCOCCNC(=O)COCCOCCNC(=O)CC[C@H](NC(=O)CCCCCCCCCCCCCCCCC(=O)O)C(=O)O)NC(=O)[C@H](CCC(=O)O)NC(=O)[C@H](CC(=O)O)NC(=O)[C@H](CC(C)C)NC(=O)[C@](C)(CC(C)C)NC(=O)[C@@H](NC(=O)[C@H](CO)NC(=O)[C@H](Cc1c[nH]cn1)NC(=O)[C@H](CC(=O)O)NC(=O)[C@H](CO)NC(=O)[C@@H](NC(=O)[C@](C)(Cc1ccccc1F)NC(=O)[C@@H](NC(=O)CNC(=O)[C@H](CCC(=O)O)NC(=O)C(C)(C)NC(=O)[C@@H](N)Cc1ccc(O)cc1)[C@@H](C)O)[C@@H](C)O)[C@@H](C)CC)[C@@H](C)CC)C(=O)N[C@@H](CCC(=O)O)C(=O)NCC(=O)NCC(=O)N1CCC[C@H]1C(=O)N[C@@H](CO)C(=O)N[C@@H](CO)C(=O)NCC(N)=O) [Peptide 179] | 3.40
2 | Y-Aib-EGT-αMeF(2F)-TSDHSI-αMeL-LDEK((2-[2-(2-Amino-ethoxy)-ethoxy]-acetyl)2-(γGlu)-CO—(CH2)16—CO2H)AQ-Aib-TFI-(D-Glu)-YLIEGGPSSGAPPPS-NH2 (YXEGTXTSDHSIXLDEKAQXTFIXYLIEGGPSSGAPPPS; Aib, αMeF(2F), αMeL, D-Glu; C18 diacid lipidated K; amide; (2)..(2) Xaa at position 2 is Aib; (6)..(6) Xaa at position 6 is alpha-methyl-Phe(2F); (13)..(13) Xaa at position 13 is alpha-methyl-Leu; MOD_RES (17)..(17) Lys at position 17 is chemically modified by conjugation of the epsilon-amino group of the Lys side chain with (2-[2-(2-amino-ethoxy)-ethoxy]-acetyl)2-(gamma-Glu)-CO-(CH2)16- CO2H; (20)..(20) Xaa at position 20 is Aib; (24)..(24) Xaa at positi) [Peptide 169] | 8.97
3 | Y-Aib-EGT-αMeF(2F)-TSDHSI-αMeL-LDEK((2-[2-(2-Amino-ethoxy)-ethoxy]-acetyl)2-(γGlu)-CO—(CH2)18—CO2H)AQ-Aib-EFIEYLIEGGPSSGAPPPS-NH2 (Y[Aib]EGT[αMePhe(2-F)]TSDHSI[αMeL]LDEK([AEEA-AEEA-γGlu-C20 diacid])AQ[Aib]EFIEYLIEGGPSSGAPPPS-NH2; N-terminus assumed; SMILES CC[C@H](C)[C@H](NC(=O)[C@H](CC(C)C)NC(=O)[C@H](Cc1ccc(O)cc1)NC(=O)[C@H](CCC(=O)O)NC(=O)[C@@H](NC(=O)[C@H](Cc1ccccc1)NC(=O)[C@H](CCC(=O)O)NC(=O)C(C)(C)NC(=O)[C@H](CCC(N)=O)NC(=O)[C@H](C)NC(=O)[C@H](CCCCNC(=O)COCCOCCNC(=O)COCCOCCNC(=O)CC[C@H](NC(=O)CCCCCCCCCCCCCCCCCCC(=O)O)C(=O)O)NC(=O)[C@H](CCC(=O)O)NC(=O)[C@H](CC(=O)O)NC(=O)[C@H](CC(C)C)NC(=O)[C@](C)(CC(C)C)NC(=O)[C@@H](NC(=O)[C@H](CO)NC(=O)[C@H](Cc1c[nH]cn1)NC(=O)[C@H](CC(=O)O)NC(=O)[C@H](CO)NC(=O)[C@@H](NC(=O)[C@](C)(Cc1ccccc1F)NC(=O)[C@@H](NC(=O)CNC(=O)[C@H](CCC(=O)O)NC(=O)C(C)(C)NC(=O)[C@@H](N)Cc1ccc(O)cc1)[C@@H](C)O)[C@@H](C)O)[C@@H](C)CC)[C@@H](C)CC)C(=O)N[C@@H](CCC(=O)O)C(=O)NCC(=O)NCC(=O)N1CCC[C@H]1C(=O)N[C@@H](CO)C(=O)N[C@@H](CO)C(=O)NCC(=O)N[C@@H](C)C(=O)N1CCC[C@H]1C(=O)N1CCC[C@H]1C(=O)N1CCC[C@H]1C(=O)N[C@@H](CO)C(N)=O) [Peptide 154] | 4.80
4 | Y-Aib-EGT-αMeF(2F)-TSDHSI-αMeL-LDEK((2-[2-(2-Amino-ethoxy)-ethoxy]-acetyl)2-(γGlu)-CO—(CH2)18—CO2H)AQ-Aib-TFI-(D-Glu)-YLIEGGPSSG-NH2 (Y[Aib]EGT[αMePhe(2-F)]TSDHSI[αMeL]LDEK([AEEA-AEEA-γGlu-C20 diacid])AQ[Aib]TFI[dE]YLIEGGPSSG-NH2; N-terminus assumed; SMILES CC[C@H](C)[C@H](NC(=O)[C@H](CC(C)C)NC(=O)[C@H](Cc1ccc(O)cc1)NC(=O)[C@@H](CCC(=O)O)NC(=O)[C@@H](NC(=O)[C@H](Cc1ccccc1)NC(=O)[C@@H](NC(=O)C(C)(C)NC(=O)[C@H](CCC(N)=O)NC(=O)[C@H](C)NC(=O)[C@H](CCCCNC(=O)COCCOCCNC(=O)COCCOCCNC(=O)CC[C@H](NC(=O)CCCCCCCCCCCCCCCCCCC(=O)O)C(=O)O)NC(=O)[C@H](CCC(=O)O)NC(=O)[C@H](CC(=O)O)NC(=O)[C@H](CC(C)C)NC(=O)[C@](C)(CC(C)C)NC(=O)[C@@H](NC(=O)[C@H](CO)NC(=O)[C@H](Cc1c[nH]cn1)NC(=O)[C@H](CC(=O)O)NC(=O)[C@H](CO)NC(=O)[C@@H](NC(=O)[C@](C)(Cc1ccccc1F)NC(=O)[C@@H](NC(=O)CNC(=O)[C@H](CCC(=O)O)NC(=O)C(C)(C)NC(=O)[C@@H](N)Cc1ccc(O)cc1)[C@@H](C)O)[C@@H](C)O)[C@@H](C)CC)[C@@H](C)O)[C@@H](C)CC)C(=O)N[C@@H](CCC(=O)O)C(=O)NCC(=O)NCC(=O)N1CCC[C@H]1C(=O)N[C@@H](CO)C(=O)N[C@@H](CO)C(=O)NCC(N)=O) [Peptide 167] | 5.98
5 | Y-Aib-EGT-αMeF(2F)-TSDHSI-αMeL-LDEK((2-[2-(2-Amino-ethoxy)-ethoxy]-acetyl)2-(γGlu)-CO—(CH2)18—CO2H)AQ-Aib-TFI-(D-Glu)-YLIEGGPSSGAPPPS-NH2 (YXEGTXTSDHSIXLDEKAQXTFIXYLIEGGPSSGAPPPS; Aib, αMeF(2F), αMeL, D-Glu; lipidated K; C-terminal amide; (2)..(2) Xaa at position 2 is Aib; (6)..(6) Xaa at position 6 is alpha-methyl-Phe(2F); (13)..(13) Xaa at position 13 is alpha-methyl-Leu; MOD_RES (17)..(17) Lys at position 17 is chemically modified by conjugation of the epsilon-amino group of the Lys side chain with (2-[2-(2-amino-ethoxy)-ethoxy]-acetyl)2-(gamma-Glu)-CO-(CH2)18- CO2H; (20)..(20) Xaa at position 20 is Aib; (24)..(24) Xaa at positi) [Peptide 168] | 9.69
6 | Y-Aib-EGT-αMeF(2F)-TSDHSI-αMeL-LDEK((2-[2-(2-Amino-ethoxy)-ethoxy]-acetyl)2-(εK)-CO—(CH2)16—CO2H)AQ-Aib-TFI-(D-Glu)-YLIEGGPSSGAPPPS-NH2 (YXEGTXTSDHSIXLDEKAQXTFIXYLIEGGPSSGAPPPS; Aib, αMeF(2F), αMeL, D-Glu; εK-lipidated K; amide; (2)..(2) Xaa at position 2 is Aib; (6)..(6) Xaa at position 6 is alpha-methyl-Phe(2F); (13)..(13) Xaa at position 13 is alpha-methyl-Leu; MOD_RES (17)..(17) Lys at position 17 is chemically modified by conjugation of the epsilon-amino group of the Lys side chain with (2-[2-(2-amino-ethoxy)-ethoxy]-acetyl)2-(epsilon-Lys)-CO-(CH2)16- CO2H; (20)..(20) Xaa at position 20 is Aib; (24)..(24) Xaa at posi) [Peptide 176] | 4.71
7 | Y-Aib-EGT-αMeF(2F)-TSDHSI-αMeL-LDEK((2-[2-(2-Amino-ethoxy)-ethoxy]-acetyl)2-CO—(CH2)18—CO2H)AQ-Aib-TFI-(D-Glu)-YLIEGGPSSGAPPPS-NH2 (YXEGTXTSDHSIXLDEKAQXTFIXYLIEGGPSSGAPPPS; Aib, αMeF(2F), αMeL, D-Glu; lipidated K; amide; (2)..(2) Xaa at position 2 is Aib; (6)..(6) Xaa at position 6 is alpha-methyl-Phe(2F); (13)..(13) Xaa at position 13 is alpha-methyl-Leu; MOD_RES (17)..(17) Lys at position 17 is chemically modified by conjugation of the epsilon-amino group of the Lys side chain with (2-[2-(2-amino-ethoxy)-ethoxy]-acetyl)2-CO-(CH2)18-CO2H; (20)..(20) Xaa at position 20 is Aib; (24)..(24) Xaa at position 24 is D-Gl) [Peptide 174] | 4.99

Reference: patent publication US12295987B2, “Method of using a GIP/GLP1 co-agonist for diabetes” (Eli Lilly and Company, priority 2018, dated 2025)
